{"source": "patent US20180214568A1", "binders": {"B1": {"name": "m906 IgG1 (antibody, V domains shown)", "VH": "EVQLVQSGAEVKKPGSSVKVSCKASGGTFTGYYMHWVRQAPGQGLEWMGWINPNSGGTNYAQKFQGRVTMTRDTSISTAYMELSRLRSDDTAVYYCARDLSSGYSGYFDYWGQGTLVTVSS", "VL": "DVVMTQSPLSLPVTPGEPASISCRSSQSLLHSNGYNFLDWYLQKPGQSPQLLIYLGSNRASGVPDRFSGSGSGTDFTLKISRVEADDVGVYYCMQSLQTPWTFGHGTKVEIKR"}, "B2": {"name": "m906PBD (antibody, V domains shown)", "VH": "B1 VH", "VL": "B1 VL", "modifications": "PBD-MC conjugated to cysteine residues of the reduced IgG (sites not given); PBD-MC (pyrrolobenzodiazepine dimer with maleimide) conjugated to cysteine residues of the reduced IgG"}, "B3": {"name": "m906 Fab (Fab, V domains shown)", "VH": "B1 VH", "VL": "B1 VL"}}, "key": {"[1]": {"molecular_target": "CD56 on the surface of human neuroblastoma cells (human) (UniProt P13591)", "experiment": "cell-based or functional assay"}, "[2]": {"molecular_target": "CD56 on the surface of human neuroblastoma cells (human) (UniProt P13591)"}, "[3]": {"molecular_target": "human CD56 whole ectodomain (residues 20-720) (human) (UniProt P13591)", "experiment": "SPR (BIACORE X100), CD56 ectodomain immobilized, Fab in flow, 1:1 model"}, "[4]": {"molecular_target": "human CD56 whole ectodomain (residues 20-720) (human) (UniProt P13591)", "experiment": "BIACORE, Fab on immobilised CD56 ectodomain"}}}
{"binder": "B1", "values": [{"measurement": "percent reduction in CD56 cell surface expression, Kelly cells, 50 nM m906 overnight", "setting": "[1]", "value": 93, "unit": "%"}, {"measurement": "percent reduction in CD56 cell surface expression, SKNAS cells, 50 nM m906 overnight", "setting": "[1]", "value": 21, "unit": "%"}, {"measurement": "percent reduction in CD56 cell surface expression, other neuroblastoma cell lines, 50 nM m906 overnight", "setting": "[1]", "value": "> 60", "unit": "%"}]}
{"binder": "B2", "values": [{"measurement": "killing of IMR5 cells (cell viability, 4 days)", "setting": "[1]", "value": 5, "unit": "pM"}, {"measurement": "IC50 (read off the curve), % survival of CHP134 cells, ADC alone", "setting": "[2]", "value": 0.01, "unit": "nM"}]}
{"binder": "B3", "values": [{"measurement": "Kd", "setting": "[3]", "value": 4.5, "unit": "nM"}, {"measurement": "Kd", "setting": "[4]", "value": 4.49, "unit": "nM"}]}
